In patent US20220403048A1, “BINDING MOLECULES TO ARGINASE II [ARG2]” (Cancer Research Technology Limited, priority 2019, published 2022):
Numbering of substitutions follows the chain as printed. One block for each binder: values may come before it.

Tests used:
[1] = molecular target: recombinant human trimeric ARG2 enzyme (construct not given) (human) (UniProt P78540); assay: cell-based or functional assay
[2] = molecular target: biotinylated recombinant human trimeric ARG2 enzyme (Avi-huARG2-His10) (human) (UniProt P78540); assay: HTRF epitope competition, scFv titrated, competitor C0020187 IgG, on biotinylated human trimeric ARG2
biotinylated recombinant human trimeric ARG2 enzyme (Avi-huARG2-His10) (human), sequence (P78540 other isoform, or with tags, fused parts or gaps limits assumed, form in doubt): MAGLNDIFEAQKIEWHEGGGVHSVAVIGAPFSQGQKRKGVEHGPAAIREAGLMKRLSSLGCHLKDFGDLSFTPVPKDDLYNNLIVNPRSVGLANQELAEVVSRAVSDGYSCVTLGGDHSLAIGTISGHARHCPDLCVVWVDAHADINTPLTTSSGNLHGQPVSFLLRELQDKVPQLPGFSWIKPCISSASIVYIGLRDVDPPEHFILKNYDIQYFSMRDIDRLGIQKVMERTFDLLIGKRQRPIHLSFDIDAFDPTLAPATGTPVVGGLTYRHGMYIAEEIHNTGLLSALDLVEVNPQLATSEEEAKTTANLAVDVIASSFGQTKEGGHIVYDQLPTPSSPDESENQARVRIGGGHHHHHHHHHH

[3] = molecular target: recombinant human trimeric ARG2 enzyme (construct not given) (human) (UniProt P78540); assay: dynamic light scattering, 8 µM each
Target sequence in this assay (P78540 23-354, form in doubt): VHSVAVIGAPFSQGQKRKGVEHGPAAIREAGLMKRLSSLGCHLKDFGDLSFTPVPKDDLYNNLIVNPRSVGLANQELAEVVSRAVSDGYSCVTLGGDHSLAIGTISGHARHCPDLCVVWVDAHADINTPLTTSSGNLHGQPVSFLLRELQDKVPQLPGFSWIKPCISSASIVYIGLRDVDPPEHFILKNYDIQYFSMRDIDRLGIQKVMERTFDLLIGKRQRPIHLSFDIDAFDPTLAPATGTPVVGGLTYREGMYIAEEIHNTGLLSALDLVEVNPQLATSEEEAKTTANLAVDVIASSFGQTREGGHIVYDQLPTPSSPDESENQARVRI

[4] = molecular target: recombinant human trimeric ARG2 enzyme (construct not given) (human) (UniProt P78540); assay: size-exclusion chromatography, 8 µM each
Target sequence in this assay (P78540 23-354, form in doubt): as above

EC50, In Presence of rhARG2 (T cell proliferation) [1]: > 2000 nM
Maximum % Proliferation, In Presence of rhARG2 [1]: 49%
B1: C0020065 recombinant human IgG1 (antibody, V domains shown)
VH: GVNLRESGGGVVQPGRSLRLSCAASGFTFSSYAMHWVRQAPGKGLEWVAVISYDGSNKYYVDSVKGRFTISRDNSKNTLYLQMNSLRAEDTAVYYCARDSSQLWFDYWGRGTLVTVSS
VL: QSVVTQPPSVSGAPGQRVTISCTGSSSNIGTGYDVHWYQQLPGTAPKLLIYGNSNRPSGVPDRFSGSKSGTSASLAITGLQAEDEADYYCQSYDSSLSGSVVFGGGTQLTVL

Trimeric human ARG2 EIA IC50 [1]: 97.6 nM
IC50 [2]: 57.8 nM
B2: C0021142 scFv (scFv, part only; not given: linker, domain order, tag, V domains shown, not shown: another chain or arm of the molecule; small tags and cut ends)
VH: EVQLLESGGGLVQPGGSLRLSCAASGFTFSSYAMSWVRQAPGKGLEWVSAHTHSPGSTYYADSVKGRFTISRDNSKNTLYLQMNSLRAEDTAVYYCARLRADLGLYMDLWGRGTLVTVSS
VL: QSVLTQPPSVSAAPGQKVTISCSGSSSNIGNHYVSWYQQLPGTAPKLLIYDNSERPSGVPDRFSGSKSGTSATLGITGLQTGDEADYYCGTWDSSLSALVFGGGTKLTVL

increase in average hydrodynamic radius (Rh) against ARG2-C0020187 Fab complexes [3]: 1.5 nm
SEC peak of the 1:1 molar ARG2:Fab mixture [4]: 275 kDa
B3: C0021139 Fab (Fab, V domains shown)
VH: B2 VH with S30Q, S31Y, Y32D, A33Y, M34Q, S35V, H51I, T52S, H53G, P55G
VL: B2 VL with P56T, V59I, S94E, S95L, L96T, A98N
